Patent US20250250357A1 (NANJING ZAIMING PHARMACEUTICAL, published 2025)
Like-named read-outs stand apart in the source and are kept apart here.

T1: monkey MSLN full-length protein (NCBI: XP_028696439.1) expressed on HEK293T-monkey MSLN cells (monkey)
T1 construct: Whole encoded precursor
T1 chain: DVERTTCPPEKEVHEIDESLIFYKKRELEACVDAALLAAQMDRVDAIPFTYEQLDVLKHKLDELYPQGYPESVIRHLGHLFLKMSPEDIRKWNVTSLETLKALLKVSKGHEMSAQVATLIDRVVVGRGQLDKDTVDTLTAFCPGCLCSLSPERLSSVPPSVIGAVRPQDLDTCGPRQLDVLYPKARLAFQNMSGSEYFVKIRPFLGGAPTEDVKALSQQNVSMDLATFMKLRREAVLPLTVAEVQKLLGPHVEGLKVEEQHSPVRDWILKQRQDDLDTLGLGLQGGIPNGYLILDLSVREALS

B1: S009-F8-22.23 (antibody, human IgG1, kappa, V domains shown)
VH: QVQLKQSGPGLVQPSQSLSITCTVSGFSLFSYGVHWVRQSPGKGLEWLGVIWSGGSTDYNAAFISRLSISKDNSKSQVFFKMNSLQADDTAMYYCARNGGSMITTLYYAMDYWGQGTSVTVSS
VL: DVVMTQTPLSLPVSLGDQASISCRSSQSLVHSYGNTYLHWYLQKPGQSPKLLIYKVSNRFSGVPDRFSGSGSGTDFTLKISRVEAEDLGVYFCSQSTHIPFTFGGGTKLEIKR
notes: human-murine chimeric antibody, human IgG1/kappa constant regions
B2: S009-F4-127.10 (antibody, human IgG1, kappa, V domains shown)
VH: EVQLQQSGPVLVKPGASVKMSCKASGYTFTDYYMNWVKQSHGKSPEWIGVINPYNDVISYNQKFKGKATLTVDKSSSTAYMELNSLTSEDSAVYYCANYGSSYYAMDYWGQGTSVTVSS
VL: DVVMTQTPLSLSVSLGDQASISCRSSQSLVHSNGNTYLQWSLQKPGQSPNLLIYKVSNRFSGVPDRFSGSGSGTDFTLKISRVEAEDLGVYFCSQTTHVPFTFGGGTKLEIRR
notes: as for B1
B3: S009-F4-94.15 (antibody, human IgG1, kappa, V domains shown)
VH: QVQLHQPGAELVRPGSSVKLSCKASGYTFTSYWVHWVQQRPRQGLEWIGNIDPSDSEIHYNQKFKDKATLTVDKSSSTAYIHLSRLTSEDSAIYYCVRGGVPWFAYWGQGTLVTVSA
VL: QIVLTQSPAIMSASPGEKVTLTCSASSSVSSTYLYWFQQKPGSSPKVWIYSTSNLASGVPARFSGSGSGTSYSLTISSMEAEDAASYFCHQWISYPYTFGGGTKLEIKR
notes: as for B1
B4: S009-F5-9.16 (antibody, human IgG1, kappa, V domains shown)
VH: EVQLRQSGPVLVKPGASVKMSCKASGYTFTDYFMNWVKPSHGKSLEWIGVINPSNGVINYNQRFKGKATLTVDKSSSTAYMELNSLTSEDSAVYYCARSYDFAWFAYWGQGTLVTVSA
VL: DVLMTQTPLSLPVSLGDQASISCRSSQNIVHSNGNTYLEWYLQKPGQSPKLLIYTVSNRFSGVPDRFSGSGSGTDFTLKISRVEAEDLGVYYCFQGSHVPYTFGGGTKLEIKR
notes: as for B1
B5: S009-F8-28.23 (antibody, human IgG1, kappa, V domains shown)
VH: EVQLVESGGDLVKPGGSLKLSCAASGFTFSSYAMSWVRQTPEKRLEWVATISDGGSYTYYPDNVEGRFTISRDNAKNNLYLQMSHLKSEDTAMYYCAGDRGYSYALDYWGQGTSVTVSS
VL: NIMMTQSPSSLAVSAGEKVTMSCKSSQSVLYSSNQKNYLAWYQQKPGQSPKLLIYWASTRESGVPDRFTGSGSGTDFTLTISSVQAEDLAVYYCHQYLSSLTFGAGTKLELKR
notes: as for B1
B6: S009-F6-62.5 (antibody, human IgG1, kappa, V domains shown)
VH: QVQLQQPGTELVKPGASVKLSCRASGYTFTAYWMHWVKQRPGQGLEWIGNINPSNGGTDFNEKFKSKATLTVDKSSSTAYMQLSSLTSEDSAVYYCARGRGYFDVWGTGTTVTVSS
VL: DILLTQSPAILSVSPGERVSFSCRASKNIGTSIHWYQQRTNGSPRLLIKYASESISGIPSRFSGSGSGTDFTLNINSVESEDIADYYCQQSNSWPTLTFGAGTKLELKR
notes: as for B1
B7: S009-F8-33.12 (antibody, human IgG1, kappa, V domains shown)
VH: EVQLQQSGAELVKPGASVKLSCTASAFNIKDYYMHWVKQRTEQGLEWIGRIDPEDGETKYAPKFQGKATITADTSSNTAYLQLSSLTSEDTAVYYCASGSGTGAMDYWGQGTSVTVSS
VL: DIVMTQSQKFMSTSVGDRVSITCKASQNVRTAVGWYQQKPGQSPKALIYLASNRHTGVPDRFTGSGSGTDFTLTISNVQSEDLADYFCLQHWNSPYTFGGGTKLVIKR
notes: as for B1
B8: S009-F6-76.1 (antibody, human IgG1, kappa, V domains shown)
VH: QVQLQQSGPELVKPGASVKISCKASGYTFTDYYINWVKQRPGQGLEWIGWIFPGRGSTFYYEKFKGKATLTVDKSSSTAYMLLSSLTSEDSAVYFCARRGDSAGYEDLDYWGQGTSVTVSS
VL: NIVMTQSPKFMSMSVGERVTLSCKASENVVTYVSWYQQKPKQSPKLLIYGASKRYTGVPDRFTGSGSATDFTLTISSVQAEDLGDYHCGQSYSYPYTFGGGTKLEIKR
notes: as for B1

Tests used:
[1] = target: T2, human MSLN protein endogenously expressed on OVCAR3 tumor cells (human, UniProt Q13421 296-598); test: FACS on OVCAR3 cells
T2 construct: whole, on cells; endogenous expression on a tumor cell line; also called human mesothelin
T2 sequence (Q13421 other isoform, or with tags, fused parts or gaps): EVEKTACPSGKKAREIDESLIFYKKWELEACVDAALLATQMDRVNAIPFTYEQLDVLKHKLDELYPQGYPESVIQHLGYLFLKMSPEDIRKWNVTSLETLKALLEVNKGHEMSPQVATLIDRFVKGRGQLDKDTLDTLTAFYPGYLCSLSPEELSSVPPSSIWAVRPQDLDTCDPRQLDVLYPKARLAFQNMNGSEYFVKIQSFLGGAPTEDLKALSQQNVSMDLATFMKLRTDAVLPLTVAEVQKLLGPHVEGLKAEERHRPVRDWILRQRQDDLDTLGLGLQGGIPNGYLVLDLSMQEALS
Method: (§1) The desired cells were expanded to the logarithmic growth phase in a T-75 cell culture flask. […] After the cells from the previous step were subjected to cell counting, the cell pellet was resuspended to 2×10⁶ cells/mL in a blocking buffer of [PBS+2% (w/w) BSA] and added into a 96-well FACS reaction plate at 50 μL/well. A chimeric antibody (a sample to be tested) was added at 50 μL/well, and the plate was incubated on ice for 2 h. […] After the plate was centrifuged and washed 5 times with a PBST buffer, assay and analysis were performed by FACS (FACS CantoII, purchased from BD). Data analysis was performed by software (Flowjo) to obtain the mean fluorescence intensity (MFI) of the cells.

[2] = target: T3, human MSLN-R3 protein expressed on HEK293T cells (HEK293T-hMSLN-R3) (human, UniProt Q13421 487-606); test: FACS on HEK293T-hMSLN-R3 cells;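 further: chimeric antibodies incubated with cells on ice for 2 h, binding read by flow cytometry as mean fluorescence intensity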
T3 construct: C-terminal limit uncertain

[3] = target: T4, human MSLN-FL-his protein (human, UniProt Q13421 296-580); test: competitive ELISA; row Tab021; further: test concentration or dose not given here
T4 construct: made in HEK293E cells, purified on nickel column; also called hMSLN-FL-his; human MSLN full-length protein; not shown: His tag

[4] = target: T4, human MSLN-FL-his protein; test: competitive ELISA; row Tab142; further: test concentration or dose not given here
[5] = target: T4, human MSLN-FL-his protein; test: competitive ELISA; row F8-29.1; further: test concentration or dose not given here
[6] = target: T4, human MSLN-FL-his protein; test: competitive ELISA; row F8-32.3; further: test concentration or dose not given here
[7] = target: T4, human MSLN-FL-his protein; test: competitive ELISA; row F8-8.22; further: test concentration or dose not given here
[8] = target: T4, human MSLN-FL-his protein; test: competitive ELISA; row F8-9.16; further: test concentration or dose not given here
[9] = target: T4, human MSLN-FL-his protein; test: competitive ELISA; row F8-22.23; further: test concentration or dose not given here
[10] = target: T4, human MSLN-FL-his protein; test: competitive ELISA; row F8-24.14; further: test concentration or dose not given here
[11] = target: T4, human MSLN-FL-his protein; test: competitive ELISA; row F8-28.23; further: test concentration or dose not given here
[12] = target: T4, human MSLN-FL-his protein; test: competitive ELISA; row F8-33.12; further: test concentration or dose not given here
[13] = target: T4, human MSLN-FL-his protein; test: competitive ELISA; row F8-36.12; further: test concentration or dose not given here
[14] = target: T4, human MSLN-FL-his protein; test: SPR (Biacore), antibody captured on Protein A chip;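 further: flow cell at 25 °C, antigen injected for 240 s at five concentrations from 200 nM downward, dissociation followed up to 600 s, double-referenced, fitted with Langmuir 1:1 model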
Method: The flow cell was set at 25° C. The sample block was set at 16° C. Both were pretreated with the running buffer. In each cycle, first, the antibody to be tested was captured using the Protein A chip, and then a single concentration of human MSLN-FL-his protein was injected. […] The association was determined by injecting different concentrations of human MSLN-FL-his in solution for 240 s on end, wherein the flow rate was 30 μL/min, and the protein was diluted in a 1:1 dilution ratio from 200 nM (see detailed results for actual concentrations tested) to obtain 5 concentrations in total. The dissociation phase was monitored for up to 600 s and triggered by switching from the sample solution to the running buffer. The surface was regenerated by washing with 10 mM glycine solution (pH 1.5) at a flow rate of 30 μL/min for 30 s. The difference in bulk refractive index was corrected by subtracting the responses obtained from the goat anti-human Fc surface. Blank injections were also subtracted (=double reference). To calculate the apparent KD and other kinetic parameters, the Langmuir 1:1 model was used.

[15] = target: T5, human MSLN protein endogenously expressed on OVCAR3 tumor cells (human, UniProt Q13421 296-598); test: FACS on OVCAR3 cells
T5 construct: whole, on cells; Endogenous target on OVCAR3 cells; kept apart from the recombinant full-length construct; also called mesothelin
Method: as §1

[16] = target: T6, human MSLN full-length protein (NCBI: AAH09272.1) expressed on HEK293T-hMSLN-B8 cells (human, UniProt Q13421 296-598); test: FACS on HEK293T-hMSLN-B8 cells
T6 construct: Whole encoded precursor
Method: as §1

[17] = target: T7, human MSLN-R3 protein (Met487-Ser606 of NCBI AAH09272.1) expressed on HEK293T-hMSLN-R3 cells (human, UniProt Q13421 487-606); test: FACS on HEK293T-hMSLN-R3 cells
T7 construct: also called Region3
Method: as §1

[18] = target: T1, monkey MSLN full-length protein (NCBI: …); test: FACS on HEK293T-monkey MSLN cells
Method: as §1

T6 sequence (Q13421 other isoform, or with tags, fused parts or gaps limits assumed): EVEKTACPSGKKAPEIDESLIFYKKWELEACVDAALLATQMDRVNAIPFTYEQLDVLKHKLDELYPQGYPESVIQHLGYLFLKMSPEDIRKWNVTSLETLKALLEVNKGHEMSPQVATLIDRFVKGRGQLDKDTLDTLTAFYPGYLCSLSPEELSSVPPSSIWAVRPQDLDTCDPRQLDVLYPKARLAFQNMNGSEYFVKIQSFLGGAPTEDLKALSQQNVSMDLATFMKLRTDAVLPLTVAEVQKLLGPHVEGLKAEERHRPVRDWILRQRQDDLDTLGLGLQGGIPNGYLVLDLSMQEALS
T7 sequence (Q13421 495-614): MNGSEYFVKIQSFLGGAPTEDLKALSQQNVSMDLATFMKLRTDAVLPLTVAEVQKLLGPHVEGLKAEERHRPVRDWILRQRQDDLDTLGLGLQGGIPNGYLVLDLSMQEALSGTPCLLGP
T3 sequence (Q13421 495-614): as above
T4 sequence (Q13421 other isoform, or with tags, fused parts or gaps): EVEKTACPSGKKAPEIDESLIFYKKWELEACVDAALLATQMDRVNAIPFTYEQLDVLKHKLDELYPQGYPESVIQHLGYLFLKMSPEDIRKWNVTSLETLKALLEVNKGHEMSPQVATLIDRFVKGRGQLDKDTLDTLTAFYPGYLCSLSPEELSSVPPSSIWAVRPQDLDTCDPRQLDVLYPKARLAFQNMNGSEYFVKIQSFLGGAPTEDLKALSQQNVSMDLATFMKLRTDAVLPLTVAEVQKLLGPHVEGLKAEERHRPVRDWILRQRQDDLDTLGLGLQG

Row | Binder | EC50 [1] [nM] | Maximum mean fluorescence intensity [1] | Maximum mean fluorescence intensity [2] | competition rate [3] [%] | competition rate [4] [%] | competition rate [5] [%] | competition rate [6] [%] | competition rate [7] [%] | competition rate [8] [%] | competition rate [9] [%] | competition rate [10] [%] | competition rate [11] [%] | competition rate [12] [%] | competition rate [13] [%] | Maximum mean fluorescence intensity [15] | EC50 [16] [nM] | Maximum mean fluorescence intensity [16] | Maximum mean fluorescence intensity [17] | Maximum mean fluorescence intensity [18] | EC50 [15] [nM] | further results
1 | B1 | 12.8 | 5500 | 404 | 11.4 | 46.4 | 70 | 85.4 | 94 | -158 | 95.7 | 92.4 | 100 | 60.3 | -156 | – | – | – | – | – | – | Kd [14]: 6.35 nM; koff [14]: 0.00275 s⁻¹; kon [14]: 433000 M⁻¹ s⁻¹
2 | B2 | – | – | – | – | – | – | – | – | – | – | – | – | – | – | 3360 | 6.07 | 102000 | 14200 | 41100 | – | EC50 [17]: 1.97 nM; EC50 [18]: 3.42 nM
3 | B3 | – | – | – | – | – | – | – | – | – | – | – | – | – | – | 7060 | 3.06 | 113000 | 84 | 29900 | 0.65 | binding result [17]: no binding; EC50 [18]: 0.37 nM
4 | B4 | – | – | – | – | – | – | – | – | – | – | – | – | – | – | 3510 | 0.76 | 240000 | 63900 | 365 | 0.82 | EC50 [17]: 0.35 nM; binding result [18]: no binding
5 | B5 | 59.8 | 1290 | 51 | 7.7 | 9.8 | 18.8 | 22.9 | 24.9 | -39.8 | 38.6 | 33.6 | 73.4 | 10 | -79.5 | – | – | – | – | – | – | binding result [2]: no binding; Kd [14]: 44 nM; koff [14]: 0.00843 s⁻¹; kon [14]: 192000 M⁻¹ s⁻¹
6 | B6 | – | – | – | – | – | – | – | – | – | – | – | – | – | – | 2600 | 0.41 | 202000 | 186 | 202 | 0.31 | binding result [17]: no binding; binding result [18]: no binding
7 | B7 | 28.4 | 2410 | 64 | 9.4 | 47.9 | 70.6 | 84.9 | 96 | -89.6 | 96.6 | 95.5 | 102 | 62.8 | -134 | – | – | – | – | – | – | binding result [2]: no binding; Kd [14]: 5.77 nM; koff [14]: 0.0361 s⁻¹; kon [14]: 6.27e+06 M⁻¹ s⁻¹
8 | B8 | – | – | – | – | – | – | – | – | – | – | – | – | – | – | 6810 | 1.39 | 231000 | 135 | 131 | 4.13 | binding result [17]: no binding; binding result [18]: no binding
